Columns and labels:
[1] = biological target: the molecule itself; test: dynamic light scattering; 50 µM protein in 20 mM HEPES pH 7.4, 150 mM NaCl, 2% glycerol; unphosphorylated protein, self-association
[2] = biological target: the molecule itself; test: crystal structure; unphosphorylated core fragment A136-Q703; two molecules per asymmetric unit; STAT5B 3.29 Å, STAT5B^N642H 3.21 Å

B1: full-length human STAT5B (M1-S787) (natural protein, UniProt P51692 1-787, looked up)
chain: MAVWIQAQQLQGEALHQMQALYGQHFPIEVRHYLSQWIESQAWDSVDLDNPQENIKATQLLEGLVQELQKKAEHQVGEDGFLLKIKLGHYATQLQNTYDRCPMELVRCIRHILYNEQRLVREANNGSSPAGSLADAMSQKHLQINQTFEELRLVTQDTENELKKLQQTQEYFIIQYQESLRIQAQFGPLAQLSPQERLSRETALQQKQVSLEAWLQREAQTLQQYRVELAEKHQKTLQLLRKQQTIILDDELIQWKRRQQLAGNGGPPEGSLDVLQSWCEKLAEIIWQNRQQIRRAEHLCQQLPIPGPVEEMLAEVNATITDIISALVTSTFIIEKQPPQVLKTQTKFAATVRLLVGGKLNVHMNPPQVKATIISEQQAKSLLKNENTRNDYSGEILNNCCVMEYHQATGTLSAHFRNMSLKRIKRSDRRGAESVTEEKFTILFESQFSVGGNELVFQVKTLSLPVVVIVHGSQDNNATATVLWDNAFAEPGRVPFAVPDKVLWPQLCEALNMKFKAEVQSNRGLTKENLVFLAQKLFNNSSSHLEDYSGLSVSWSQFNRENLPGRNYTFWQWFDGVMEVLKKHLKPHWNDGAILGFVNKQQAHDLLINKPDGTFLLRFSDSEIGGITIAWKFDSQERMFWNLMPFTTRDFSIRSLADRLGDLNYLIYVFPDRPKDEVYSKYYTPVPCESATAKAVDGYVKPQIKQVVPEFVNASADAGGGSATYMDQAPSPAVCPQAHYNMYPQNPDSVLDTDGDFDLEDTMDVARRVEELLGRPMDSQWIPHAQS
notes: human STAT5B, full length M1-S787, gene NCBI NM_012448.3, unphosphorylated; also called wild-type STAT5B; wild-type; source: E. coli BL21 (DE3) RILP, purified (Ni-NTA, Ulp1 cleavage, SEC); not shown: His, N-terminal, cleaved; SUMO, N-terminal, cleaved
stoichiometry N [1]: 2

B2: human STAT5B core fragment (A136-Q703) (domain or fragment, UniProt P51692 136-703, looked up)
chain: AMSQKHLQINQTFEELRLVTQDTENELKKLQQTQEYFIIQYQESLRIQAQFGPLAQLSPQERLSRETALQQKQVSLEAWLQREAQTLQQYRVELAEKHQKTLQLLRKQQTIILDDELIQWKRRQQLAGNGGPPEGSLDVLQSWCEKLAEIIWQNRQQIRRAEHLCQQLPIPGPVEEMLAEVNATITDIISALVTSTFIIEKQPPQVLKTQTKFAATVRLLVGGKLNVHMNPPQVKATIISEQQAKSLLKNENTRNDYSGEILNNCCVMEYHQATGTLSAHFRNMSLKRIKRSDRRGAESVTEEKFTILFESQFSVGGNELVFQVKTLSLPVVVIVHGSQDNNATATVLWDNAFAEPGRVPFAVPDKVLWPQLCEALNMKFKAEVQSNRGLTKENLVFLAQKLFNNSSSHLEDYSGLSVSWSQFNRENLPGRNYTFWQWFDGVMEVLKKHLKPHWNDGAILGFVNKQQAHDLLINKPDGTFLLRFSDSEIGGITIAWKFDSQERMFWNLMPFTTRDFSIRSLADRLGDLNYLIYVFPDRPKDEVYSKYYTPVPCESATAKAVDGYVKPQ
notes: human STAT5B core fragment A136-Q703 (printed once as S136-Q703), unphosphorylated; Two molecules per asymmetric unit; described as the unphosphorylated dimer; also called unphosphorylated STAT core fragment; source: E. coli BL21 (DE3) RILP, purified (Ni-NTA, Ulp1 cleavage, SEC); not shown: His, N-terminal, cleaved; SUMO, N-terminal, cleaved
binding result [2]: binds

B3: STAT5B^N642H core fragment (A136-Q703) (domain or fragment, human, UniProt P51692 136-703, looked up)
chain: AMSQKHLQINQTFEELRLVTQDTENELKKLQQTQEYFIIQYQESLRIQAQFGPLAQLSPQERLSRETALQQKQVSLEAWLQREAQTLQQYRVELAEKHQKTLQLLRKQQTIILDDELIQWKRRQQLAGNGGPPEGSLDVLQSWCEKLAEIIWQNRQQIRRAEHLCQQLPIPGPVEEMLAEVNATITDIISALVTSTFIIEKQPPQVLKTQTKFAATVRLLVGGKLNVHMNPPQVKATIISEQQAKSLLKNENTRNDYSGEILNNCCVMEYHQATGTLSAHFRNMSLKRIKRSDRRGAESVTEEKFTILFESQFSVGGNELVFQVKTLSLPVVVIVHGSQDNNATATVLWDNAFAEPGRVPFAVPDKVLWPQLCEALNMKFKAEVQSNRGLTKENLVFLAQKLFNNSSSHLEDYSGLSVSWSQFNRENLPGRNYTFWQWFDGVMEVLKKHLKPHWNDGAILGFVNKQQAHDLLINKPDGTFLLRFSDSEIGGITIAWKFDSQERMFWHLMPFTTRDFSIRSLADRLGDLNYLIYVFPDRPKDEVYSKYYTPVPCESATAKAVDGYVKPQ
notes: human STAT5B core fragment A136-Q703 with the patient-derived mutation N642H; Two molecules per asymmetric unit; described as the unphosphorylated dimer; source: E. coli BL21 (DE3) RILP, purified (Ni-NTA, Ulp1 cleavage, SEC); not shown: His, N-terminal, cleaved; SUMO, N-terminal, cleaved
binding result [2]: binds

— PMC6555848, “Structural and functional consequences of the STAT5B^N642H driver mutation” (Nature Communications, 2019)
